Assay results: US20030125523A1 (VEGENICS, published 2003)

Tests used:
[1] = molecular target: NP-1 expressed on PAE-NP-1 cells (UniProt O14786); experiment: competition of 125I-hVEGF165 (1 ng/ml) binding to PAE-NP-1 cells by 20 µg/ml GST fusion
[2] = molecular target: T1, soluble Neuropilin-1-Ig fusion protein (extracellular domain of mouse NP-1 fused to the human IgG Fc-part) (mouse; human, UniProt P97333 22-856); experiment: precipitation of 35S-labelled growth factor with NP-1-Ig on protein A sepharose, SDS-PAGE (FIG. 6)
T1 construct: extracellular domain; Made in transfected 293T cells and captured on protein A sepharose; also called NP-1-Ig; soluble NP-1-Ig; not shown: human IgG Fc-part encoded by the pIgplus vector (Ingenius)
T1 sequence (looked up): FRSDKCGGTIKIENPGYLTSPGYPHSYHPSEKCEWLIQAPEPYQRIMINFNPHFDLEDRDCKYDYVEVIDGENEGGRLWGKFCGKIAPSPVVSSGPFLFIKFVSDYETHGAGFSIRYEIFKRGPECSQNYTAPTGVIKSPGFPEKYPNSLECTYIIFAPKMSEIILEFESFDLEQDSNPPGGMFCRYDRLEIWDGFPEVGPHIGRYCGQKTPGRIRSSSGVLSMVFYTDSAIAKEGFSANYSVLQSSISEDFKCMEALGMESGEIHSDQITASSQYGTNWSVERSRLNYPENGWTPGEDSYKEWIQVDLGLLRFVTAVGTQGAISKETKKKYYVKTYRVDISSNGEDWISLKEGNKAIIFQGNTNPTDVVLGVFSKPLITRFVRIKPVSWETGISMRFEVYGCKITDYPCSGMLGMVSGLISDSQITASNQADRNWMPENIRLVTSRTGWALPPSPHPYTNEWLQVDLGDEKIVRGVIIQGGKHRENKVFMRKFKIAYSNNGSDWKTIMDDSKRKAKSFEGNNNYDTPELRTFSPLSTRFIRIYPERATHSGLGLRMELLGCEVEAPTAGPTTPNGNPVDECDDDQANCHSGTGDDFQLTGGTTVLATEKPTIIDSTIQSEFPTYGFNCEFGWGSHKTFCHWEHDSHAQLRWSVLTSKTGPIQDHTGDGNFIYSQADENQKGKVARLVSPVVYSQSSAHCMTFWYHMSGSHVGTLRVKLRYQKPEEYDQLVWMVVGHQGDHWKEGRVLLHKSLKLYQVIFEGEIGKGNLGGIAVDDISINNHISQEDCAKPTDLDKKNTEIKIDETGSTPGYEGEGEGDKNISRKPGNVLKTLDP

[3] = molecular target: T1, soluble Neuropilin-1-Ig fusion protein …; experiment: precipitation of 35S-labelled growth factor with NP-1-Ig on protein A sepharose, SDS-PAGE (FIG. 7)
[4] = molecular target: T1, soluble Neuropilin-1-Ig fusion protein …; experiment: precipitation of 35S-labelled growth factor from conditioned medium with NP-1-Ig on protein A sepharose, SDS-PAGE
[5] = molecular target: T1, soluble Neuropilin-1-Ig fusion protein …; experiment: precipitation of 35S-labelled growth factor from conditioned medium with NP-1-Ig on protein A sepharose, SDS-PAGE (FIG. 3)
Method: 293-T or 293EBNA cells were similarly transfected with plasmids encoding hVEGF₁₆₅, mVEGF-B₁₆₇, mVEGF-B₁₈₆, hVEGF-C, hVEGF-D, PlGF-1 or PlGF-2, and the transfected cells were metabolically labeled 24 hours post transfection with 100 μCi/ml Pro-mix TML-³⁵S (Amersham) for 6 to 7 hours. 10 μg/ml heparin was added to the labeling medium to facilitate the release of the heparin sulphate-binding growth factors from the cell surface and pericellular matrix. Metabolically labeled media, with the exception of the medium used for VEGF transfection, were immunodepleted of endogenous VEGF by immunoprecipitating with VEGF antibody for two hours. Similar amounts of media containing the metabolically labeled growth factors were then used for immunoprecipitation or for receptor binding analysis. Growth factors were incubated for 3 hours at room temperature with receptor-Igs in binding buffer (phosphate buffered saline (PBS), 0.5% BSA, 0.2% Tween 20). The sepharose beads were then washed once with ice cold binding buffer and three times with PBS and analyzed by 15% SDS-PAGE.
Immunoprecipitations were carried out using specific antibodies against VEGF₁₆₅, VEGF-B₁₆₇, VEGF-B₁₈₆, VEGF-C, VEGF-D and protein A sepharose. […] In contrast, no significant binding was detected between NP-1-Ig and hVEGF-D or PlGF-1. […]

Chain of NP-1 expressed on PAE-NP-1 cells (O14786 22-923 limits assumed): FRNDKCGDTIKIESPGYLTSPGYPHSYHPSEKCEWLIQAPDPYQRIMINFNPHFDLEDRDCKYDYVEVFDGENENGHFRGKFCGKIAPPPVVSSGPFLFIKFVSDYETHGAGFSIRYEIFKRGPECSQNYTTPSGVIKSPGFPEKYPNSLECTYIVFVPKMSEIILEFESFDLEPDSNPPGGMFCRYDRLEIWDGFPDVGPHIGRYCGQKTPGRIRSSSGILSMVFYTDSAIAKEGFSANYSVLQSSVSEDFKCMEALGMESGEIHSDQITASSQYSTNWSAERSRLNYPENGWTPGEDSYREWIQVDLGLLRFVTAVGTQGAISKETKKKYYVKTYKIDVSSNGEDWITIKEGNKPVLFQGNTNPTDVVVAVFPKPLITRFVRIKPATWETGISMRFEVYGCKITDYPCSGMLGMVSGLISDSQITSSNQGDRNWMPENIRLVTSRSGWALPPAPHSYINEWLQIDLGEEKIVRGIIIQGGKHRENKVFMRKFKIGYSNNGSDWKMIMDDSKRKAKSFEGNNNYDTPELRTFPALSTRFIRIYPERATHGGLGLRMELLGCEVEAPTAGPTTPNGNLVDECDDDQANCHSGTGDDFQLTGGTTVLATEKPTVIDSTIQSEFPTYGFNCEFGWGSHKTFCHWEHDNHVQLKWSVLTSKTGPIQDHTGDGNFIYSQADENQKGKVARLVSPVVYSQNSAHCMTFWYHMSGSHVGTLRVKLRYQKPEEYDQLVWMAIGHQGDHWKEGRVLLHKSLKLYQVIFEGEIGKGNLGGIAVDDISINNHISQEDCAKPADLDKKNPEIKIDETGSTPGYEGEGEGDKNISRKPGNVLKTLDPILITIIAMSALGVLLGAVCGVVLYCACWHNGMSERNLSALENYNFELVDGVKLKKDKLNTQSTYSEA

Molecule: GST-VEGF-B167 exon 6B fusion protein (GST fused to amino acids 117-161 of mVEGF-B167) (from UniProt P49766 117-161)
- percent competition [1]: 50%

B1: mVEGF-BkEx1-5 (ligand, mouse, UniProt P49766 22-136, looked up)
chain: PVSQFDGPSHQKKVVPWIDVYARATCQPREVVVPLSMELMGNVVKQLVPSCVTVQRCGGCCPDDGLECVPTGQHQVRMQILMIQYPSSQLGEMSLEEHSQCECRPKKKESAVKPD
notes: domain: exons 1-5; also called murine VEGF-BkEx1-5; construct containing exons 1-5 of murine VEGF-B
- binding result [2]: no binding

B2: human VEGF-C (full length) (ligand, UniProt P49767 32-419, looked up)
chain: FESGLDLSDAEPDAGEATAYASKDLEEQLRSVSSVDELMTVLYPEYWKMYKCQLRKGGWQHNREQANLNSRTEETIKFAAAHYNTEILKSIDNEWRKTQCMPREVCIDVGKEFGVATNTFFKPPCVSVYRCGGCCNSEGLQCMNTSTSYLSKTLFEITVPLSQGPKPVTISFANHTSCRCMSKLDVYRQVHSIIRRSLPATLPQCQAANKTCPTNYMWNNHICRCLAQEDFMFSSDAGDDSTDGFHDICGPNKELDEETCQCVCRAGLRPASCGPHKELDRNSCQCVCKNKLFPSQCGANREFDENTCQCVCKRTCPRNQPLNPGKCACECTESPQKCLLKGKKFHHQTCSCYRRPCTNRQKACEPGFSYSEEVCRCVPSYWKRPQMS
notes: 35S labelled, from conditioned medium of transfected cells; also called hVEGF-C; full length VEGF-C
- binding result [3]: binds

B3: human VEGF165 (ligand, UniProt P15692-4 27-191, looked up)
chain: APMAEGGGQNHHEVVKFMDVYQRSYCHPIETLVDIFQEYPDEIEYIFKPSCVPLMRCGGCCNDEGLECVPTEESNITMQIMRIKPHQGQHIGEMSFLQHNKCECRPKKDRARQENPCGPCSERRKHLFVQDPQTCKCSCKNTDSRCKARQLELNERTCRCDKPRR
notes: also called hVEGF165; rhVEGF165
- binding result [4]: binds

B4: PlGF-1 (ligand, UniProt P49763-2 19-149, looked up)
chain: LPAVPPQQWALSAGNGSSEVEVVPFQEVWGRSYCRALERLVDVVSEYPSEVEHMFSPSCVSLLRCTGCCGDENLHCVPVETANVTMQLLKIRSGDRPSYVELTFSQHVRCECRPLREKMKPERCGDAVPRR
notes: 35S labelled, from conditioned medium of transfected cells; also called placenta growth factor isoform 1
- binding result [5]: no binding

B5: mouse VEGF-B167 (ligand, UniProt P49766-2 22-188, looked up)
chain: PVSQFDGPSHQKKVVPWIDVYARATCQPREVVVPLSMELMGNVVKQLVPSCVTVQRCGGCCPDDGLECVPTGQHQVRMQILMIQYPSSQLGEMSLEEHSQCECRPKKKESAVKPDSPRILCPPCTQRRQRPDPRTCRCRCRRRRFLHCQGRGLELNPDTCRCRKPRK
notes: 35S metabolically labelled, from conditioned medium of transfected cells; also called mVEGF-B167
- binding result [4]: binds
